{
  "source": "patent US20040265808A1",
  "about": "“Genes involved in osteogenesis, and methods of use” (priority 2001, published 2004)",
  "molecules": {"B1": {"name": "65 (nucleic acid, listed as Mus musculus)", "chain": "AATCTAGAATGGAGGCCAGAGCTCAGAGTGGCAACGGGTCGCAGCCTTTGCTGCAGACAGCCCATGACAGTGGCAGGCAGCGCGGGGAGCCGGATCCAAGAGATGCCCTTACCCAGCAGGTACACGTCTTGTCTCTGGATCAGATCAGAGCCATCCGAAACACCAATGAGTACACAGAGGGCCCTACTGTGGTCCCAAGACCTGGGCTCAAGCCTGCTCCTCGCCCCTCCACTCAGCACAAACATGAAAGACTCCACGGTCTGCCGGAGCACCGCCAGCCTCCCAGGCTCCAGCCCTCGCAGGTCCATTCTTCACGGGCCCCTCTGTCCAGGTCCATCAGCACTGTCAGCTCAGGGTCTCGGAGCAGTACAAGGACAAGTACCAGCAGCAGCTCCTCGGAACAGAGACTGTTAGGACCGTCCTTCTCCCACGGGCCTGCTGCTGCTGATGGAATAATCCGAGTGCAGCCTAAATCGGAGCTCAAGCCAGGTGACGTTAAGCCACTGAGCAAGGATGATTTGGGTCTGCATGCCTACAGGTGTGAGGACTGCGGCAAGTGCAAGTGTAAGGAGTGCACCTACCCGAGGCCCCTGCCGTCGGACTGGATCTGTGACAAGCAGTGCCTCTGCTCAGCCCAGAACGTCATTGACTATGGGACTTGTGTGTGCTGTGTGAAAGGTCTCTTCTATCACTGCTCCAATGACGATGAGGACAATTGTGCTGACAACCCGTGCTCTTGCAGCCAGTCCCATTGTTGTACGCGATGGTCAGCGATGGGAGTCATGTCTCTCTTTTTGCCTTGTTTATGGTGTTACCTTCCAGCCAAGGGTTGCCTTAAATTGTGCCAGGGGTGTTATGACCGAGTGAACAGGCCGGGTTGTCGTTGTAAAAACTCAAATACAGTTTGCTGCAAAGTTCCCACTGTCCCCCCTAGGAACTTTGAAAAACCAACAACTAGTAAAAGGGCGAATTCCAGCAC"}, "B2": {"name": "48 (nucleic acid, listed as Mus musculus)", "chain": "AATCTAGAATGGCAGCTGCCTCTACTTCCAGCCCTGTAATTTCACAGCCCCAGTTCACAGCCATGAACGAACAACAGTGCTTCTACAATGAGTCTATCGCCTTCTTTTATAACCGGAGTGGGAAATATCTAGCCACAGAATGGAACACAGTGAGCAAGCTGGTGATGGGACTGGGCATCACTGTTTGCGTGTTCATCATGTTGGCCAATCTCCTGGTCATGGTGGCAATCTACGTCAACCGCCGCTTCCATTTCCCTATTTATTACTTGATGGCCAACCTGGCTGCTGCAGACTTCTTCGCTGGATTGGCCTACTTCTACCTGATGTTCAATACAGGACCTAATACCCGGAGACTGACTGTTAGCACGTGGCTCCTCCGGCAGGGCCTCATTGACACCAGCCTGACAGCTTCTGTGGCCAACCTGCTGGCTATTGCTATCGAGAGGCACATCACGGTTTTCCGCATGCAGCTCCATACACGAATGAGCAACCGGCGCGTGGTGGTGGTGATTGTAGTCATCTGGACTATGGCCATTGTGATGGGTGCTATACCCAGTGTGGGCTGGAACTGCATCTGTGATATCGATCACTGTTCCAACATGGCACCCCTCTACAGTGACTCCTACTTAGTCTTCTGGGCCATTTTCAACCTGGTGACCTTTGTGGTCATGGTGGTTCTCTACGCTCACATCTTTGGCTATGTTCGCCAGAGGACTATGAGGATGTCTCGGCATAGTTCTGGACCCAGGAGGAATCGGGACACCATGATGAGCCTTCTGAAGACTGTGGTCATTGTGCTTGGTGCCTTTATTGTCTGCTGGACTCCGGGATTGGTCTTGTTATTGCTGGATGTGTGCTGCCCGCAGTGCGATGTCCTGGCCTATGAGAAGTTCTTCCTCCTCCTGGCCGAGTTCAACTCTGCTATGAACCCCATCATCTACTCCTACCGCGACAAAGAGATGAGCGCCACCTTCAGGCAGATCCTGTGTTGCCAGCGCAACGAGAACCCTAATGGCCCCACGGAAGGCTCTGACCGCTCTGCCTCCTCCCTCAACCACACCATTCTGGCTGGAGTTCACAGCAACGACCACTCTGTGGTTACTAGTAA"}, "B3": {"name": "24 (nucleic acid, listed as Mus musculus)", "chain": "CGATCGATATGGCCAGCCCGCTGCGCTCCTTGCTGTTCCTGCTGGCCGTCCTGGCCGTGGCCTGGGCGGCGACCCCAAAACAAGGCCCGCGAATGTTGGGAGCCCCGGAGGAGGCAGATGCCAATGAGGAAGGCGTGCGGCGAGCGTTGGACTTCGCTGTGAGCGAGTACAACAAGGGCAGCAACGATGCGTACCACAGCCGCGCCATACAGGTGGTGAGAGCTCGTAAGCAGCTCGTGGCTGGAGTGAACTATTTTTTGGATGTGGAGATGGGCCGAACTACATGTACCAAGTCCCAGACAAATTTGACTGACTGTCCTTTCCATGACCAGCCCCATCTGATGAGGAAGGCACTCTGCTCCTTCCAGATCTACAGCGTGCCCTGGAAAGGCACACACTCCCTGACAAAATTCAGCTGCAAAAATGCCGCGGCCGCTT"}, "B4": {"name": "46 (nucleic acid, listed as Mus musculus)", "chain": "AATCTAGAATGGTGTCCACTAGCATCCCGGAGGTTAAAGCTCTCCGCAGCTCAGTCTCTGACTATGGGAACTATGATATCATAGTCCGGCATTACAACTACACAGGCAAGTTGAACATCGGGGCGGAGAAGGACCATGGCATTAAACTGACTTCAGTGGTGTTCATTCTCATCTGCTGCTTCATCATCCTAGAGAATATATTTGTCTTGCTAACTATTTGGAAAACCAAGAAGTTCCACCGGCCCATGTACTATTTCATAGGCAACCTAGCCCTCTCGGACCTATTAGCAGGCGTGGCTTACACAGCTAACCTGCTGTTGTCTGGGGCCACCACTTACAAGCTCACACCTGCCCAGTGGTTTCTGCGGGAAGGGAGTATGTTTGTGGCTCTCTCTGCATCAGTCTTCAGCCTCCTTGCCATCGCCATTGAGCGCTACATCACCATGCTGAAGATGAAACTACACAACGGGAGCAACAGCTCGCGCTCCTTTCTGCTGATCAGCGCCTGCTGGGTCATCTCCCTCATCCTGGGGGGCCTGCCCATCATGGGCTGGAACTGCATCAGCTCGCTGTCTAGCTGCTCCACCGTGCTCCCGCTCTACCACAAGCACTATATTCTCTTCTGCACCACCGTCTTCACTCTGCTCCTGCTTTCCATCGTCATCCTCTACTGCAGGATCTACTCCTTGGTCAGGACTCGAAGCCGCCGCCTGACCTTCCGCAAGAACATCTCCAAGGCCAGTCGCAGTTCTGAGAAGTCTCTGGCCTTGCTGAAGACGGTGATCATTGTCTTGAGTGTCTTCATTGCCTGCTGGGCCCCTCTCTTCATCCTACTACTGTTAGATGTGGGCTGCAAGGCGAAGACCTGTGACATCCTGTACAAAGCAGAGTACTTCCTGGTTCTGGCTGTGCTGAACTCAGGTACCAACCCCATCATCTACACTCTGACCAACAAGGAGATGCGCCGGGCCTTCATCCGGATCGTATCTTGTTGCAAATGCCCCAACGGAGACTCTGCTGGCAAATTCAAGAGGCCCATCATCCCAGGCATGGAATTTAGCCGCAGCAAATCAGACAACTCCTCTCACCCCCAGAAGGACGATGGGGACAACCCAGAGACCATTATGTCGTCTGGAAACGTCAATTCTTCTTCCACTAGTAA"}, "B5": {"name": "7 (nucleic acid, listed as Mus musculus)", "chain": "AATCTAGAATGAAGTCCTGCGGCCTTTTACCTTTCACGGTGCTCCTTGCTCTGGGGATCCTGGCACCCTGGACTGTGGAAGGAGGCAAAAATGATGCTATCAAAATCGGAGCCTGCCCTGCTAAAAAGCCTGCCCAGTGCCTTAAGCTTGAGAAGCCACAATGCCGTACTGACTGGGAGTGCCCGGGAAAGCAGAGGTGCTGCCAAGATGCTTGCGGTTCCAAGTGCGTGAATCCTGTTCCCATTCGCAAACCAGTGTGGAGGAAGCCTGGGAGGTGCGTCAAAACTCAGGCAAGATGTATGATGCTTAACCCTCCCAATGTCTGCCAGAGGGACGGGCAGTGTGACGGCAAATACAAGTGCTGTGAGGGTATATGTGGGAAAGTCTGCCTGCCCCCGATGACTAGTAA"}, "B6": {"name": "67 (nucleic acid, listed as Mus musculus)", "chain": "AATCTAGAATGGCGTTGACTGCGGATGTGGCAGGACCAGCACCTTGGGGCTTCCGAATTAGCGGGGGCAGAGATTTCCACACACCCATCATTGTGACCAAGGTCACAGAGCGGGGCAAGGCTGAAGCAGCTGATCTCCGGCCTGGCGACATCATTGTGGCCATCAATGGACAGAGTGCAGAGAACATGCTACACGCGGAGGCCCAAAGCAAGATCCGACAGAGCGCCTCACCCCTAAGACTGCAGCTGGACCGGTCCCAAACAGCCTCTCCTGGGCAGACCAATGGGGAGGGCTCCTTGGAAGTGCTGGCAACCAGATTCCAGGGCTCCCTGAGGACACACCGTGACAGCCAGTCTTCCCAGAGGTCTGCCTGCTTCAGCCCAGTCTCTCTCAGCCCCAGGCCTTGCAGCCCCTTCTCCACCCCACCCCCTACCAGCCCAGTTGCCCTTTCTAAAGAGGATATGATTGGCTGTAGTTTCCAGAGTCTGACACACTCTCCAGGCCTTGCTGCTGCTCACCACTTGACCTACCCTGGCCACCCCACCAGCCAACAGGCCGGCCACAGCAGCCCAAGCGACTCCGCAGTGAGGGTGCTGCTCCATTCCCCAGGACGGCCCTCCAGCCCTAGGTTCAGCAGTTTGGATCTGGAGGAAGACTCAGAGGTGTTCAAGATGCTGCAGGAGAACCGCCAGGGACGGGCCGCCCCAAGGCAGTCCAGCTCTTTTCGACTCTTACAGGAAGCCTTGGAGGCTGAGGAGAGAGGTGGCACACCTGCCTTTGTGCCCAGCTCGCTGAGCTCCCAGGCTTCCTTGCCCACCTCCAGGGCCTTGGCCACTCCACCCAAGCTCCACACCTGTGAGAAATGCAGCGTCAACATCTCGAACCAGGCGGTCCGCATCCAGGAGGGGAGGTACCGACACCCTGGCTGCTACACTTGCGCAGACTGTGGGCTGAACCTGAAGATGCGCGGCCACTTCTGGGTGGGCAATGAGTTGTACTGCGAGAAGCATGCCCGCCAGCGCTACTCTATGCCTGGAACTCTCAACTCTCGAGCCACTAGTAA"}},
  "data": [
    {"system": "pluripotent cells C3H10T1/2, ST2 and C2C12", "assay": "Wnt-frizzled pathway and osteoblast differentiation, alkaline phosphatase measurement in pluripotent cells", "format": "cell-based, mouse", "settings": "C3H10T1/2 cells", "excerpt": "FIGS. 1 to 7 represents the relationship between members of the Wnt-frizzled family, with bone formation, by measurement of alkaline phosphatase (ALP).\nThe inventors have also tested the capacity of Fz1 to interact with Wnt proteins and thus affect osteoblast differentiation. Overexpression of Fz1 decreased the activity of Wnt1, Wnt2 and Wnt3a in pluripotent cells C3H10T1/2 as determined by the alkaline phosphatase measurement (FIG. 4). However the expression of Fz3 or Fz4 increased the activity of Wnt proteins in the differentiation process (FIG. 6). […] This indicate that Frizzled may negatively or positively cooperate with their ligand proteins, Wnt, in these bone-related cells.\n(§1) Mouse cell lines representing different stages of osteoblastic differentiation, C2C12, C2H10T1/2, ST2 and MC3T3-E1, were grown in the presence of agents capable of the induction of osteoblastic differentiation in vitro such as BMP2 and Sonic Hedgehog or in the presence of TGF beta (negative control) or with serum alone. Primary cells derived from mouse calvaria were also cultured for 0, 2, 7 14 and 21 days and RNA prepared for each time point. For example, C3H10T ½ and C2C12 can be obtained from the ATCC (Manassas, Va., USA) under the collection numbers CCL-226 and CRL-1772, respectively.", "values": [
      {"molecule": "TCF4: TCF protein, transcription factor of the Wnt pathway", "effect on BMP-2": "inhibitors"}
    ]},
    {"system": "C3H10T1/2 cells", "assay": "Transient over-expression of candidate genes, cooperation with BMP2 by measurement of alkaline phosphatase", "format": "cell-based, mouse", "design": "key: +: positive or negative cooperation with BMP2; −: positive or negative cooperation with BMP2", "settings": "alkaline phosphatase", "description": "as §1\n(§2) The candidates genes are cloned in expression vectors and their ability to express a protein of the expected size verified by COS cells transient transfection. The genes are then transfected in C3H10T1/2 cells and/or C2C12 cells (transient over-expression) and positive or negative cooperation with BMP2 is evaluated by the measurement of alkaline phosphatase (enzymatic assay and TaqMan) at 48 hours. Controls of positive cooperation, recombinant Sonic Hedgehog, or negative cooperation, recombinant Noggin, are included in each test.", "values": [
      {"molecule": "B1", "Validation in vitro (coop over BMP2) C3H10T1/2": "+"},
      {"molecule": "B2", "Validation in vitro (coop over BMP2) C3H10T1/2": "+"},
      {"molecule": "B3", "Validation in vitro (coop over BMP2) C3H10T1/2": "−"},
      {"molecule": "B4", "Validation in vitro (coop over BMP2) C3H10T1/2": "+"},
      {"molecule": "B5", "Validation in vitro (coop over BMP2) C3H10T1/2": "+"},
      {"molecule": "B6", "Validation in vitro (coop over BMP2) C3H10T1/2": "−"}
    ]},
    {"system": "C3H10T1/2 cells", "assay": "Transient over-expression of candidate genes, cooperation with BMP2 by measurement of alkaline phosphatase", "format": "cell-based, mouse", "design": "key: +: positive or negative cooperation with BMP2; −: positive or negative cooperation with BMP2", "settings": "alkaline phosphatase at 48 hours", "description": "as §1, §2", "values": [
      {"molecule": "B1", "Validation in C2H10T1/2 (coop over BMP2)": "+ coop over BMP2"},
      {"molecule": "B2", "Validation in C2H10T1/2 (coop over BMP2)": "+ coop over BMP2"},
      {"molecule": "B4", "Validation in C2H10T1/2 (coop over BMP2)": "+ coop over BMP2"},
      {"molecule": "B5", "Validation in C2H10T1/2 (coop over BMP2)": "+ coop over BMP2"}
    ]}
  ]
}
